Experiments:
[1] = target: T1, Trn1Δloop (HEAT repeat 8 loop replaced with the GGSGGSG linker) (human, UniProt Q92973 1-343; Q92973 376-898); experiment: SEC-MALS
T1 chain: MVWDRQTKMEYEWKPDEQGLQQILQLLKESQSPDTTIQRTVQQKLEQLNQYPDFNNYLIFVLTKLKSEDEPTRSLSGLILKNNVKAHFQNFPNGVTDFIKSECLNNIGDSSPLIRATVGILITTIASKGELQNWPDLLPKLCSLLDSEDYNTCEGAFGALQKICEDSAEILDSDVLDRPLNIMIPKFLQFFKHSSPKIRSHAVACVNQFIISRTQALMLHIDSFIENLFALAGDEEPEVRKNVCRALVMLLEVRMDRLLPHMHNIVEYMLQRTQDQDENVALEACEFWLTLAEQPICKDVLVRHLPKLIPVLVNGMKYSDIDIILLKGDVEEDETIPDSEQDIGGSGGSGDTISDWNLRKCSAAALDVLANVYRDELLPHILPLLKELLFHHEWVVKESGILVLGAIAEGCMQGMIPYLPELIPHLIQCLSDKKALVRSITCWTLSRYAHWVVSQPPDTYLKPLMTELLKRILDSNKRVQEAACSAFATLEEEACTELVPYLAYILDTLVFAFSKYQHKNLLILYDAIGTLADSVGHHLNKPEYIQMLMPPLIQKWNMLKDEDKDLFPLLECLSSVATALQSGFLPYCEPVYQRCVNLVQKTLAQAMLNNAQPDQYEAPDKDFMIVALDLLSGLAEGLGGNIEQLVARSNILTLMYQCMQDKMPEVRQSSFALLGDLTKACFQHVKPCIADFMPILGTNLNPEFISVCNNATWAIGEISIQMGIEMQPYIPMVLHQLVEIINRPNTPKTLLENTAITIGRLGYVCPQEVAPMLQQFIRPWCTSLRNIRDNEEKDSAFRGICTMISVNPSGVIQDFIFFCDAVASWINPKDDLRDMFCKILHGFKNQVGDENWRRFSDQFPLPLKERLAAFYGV

[2] = target: T2, full-length Transportin-1 (Trn1), wild type (human, UniProt Q92973 1-898); experiment: SEC-MALS
T2 sequence (looked up): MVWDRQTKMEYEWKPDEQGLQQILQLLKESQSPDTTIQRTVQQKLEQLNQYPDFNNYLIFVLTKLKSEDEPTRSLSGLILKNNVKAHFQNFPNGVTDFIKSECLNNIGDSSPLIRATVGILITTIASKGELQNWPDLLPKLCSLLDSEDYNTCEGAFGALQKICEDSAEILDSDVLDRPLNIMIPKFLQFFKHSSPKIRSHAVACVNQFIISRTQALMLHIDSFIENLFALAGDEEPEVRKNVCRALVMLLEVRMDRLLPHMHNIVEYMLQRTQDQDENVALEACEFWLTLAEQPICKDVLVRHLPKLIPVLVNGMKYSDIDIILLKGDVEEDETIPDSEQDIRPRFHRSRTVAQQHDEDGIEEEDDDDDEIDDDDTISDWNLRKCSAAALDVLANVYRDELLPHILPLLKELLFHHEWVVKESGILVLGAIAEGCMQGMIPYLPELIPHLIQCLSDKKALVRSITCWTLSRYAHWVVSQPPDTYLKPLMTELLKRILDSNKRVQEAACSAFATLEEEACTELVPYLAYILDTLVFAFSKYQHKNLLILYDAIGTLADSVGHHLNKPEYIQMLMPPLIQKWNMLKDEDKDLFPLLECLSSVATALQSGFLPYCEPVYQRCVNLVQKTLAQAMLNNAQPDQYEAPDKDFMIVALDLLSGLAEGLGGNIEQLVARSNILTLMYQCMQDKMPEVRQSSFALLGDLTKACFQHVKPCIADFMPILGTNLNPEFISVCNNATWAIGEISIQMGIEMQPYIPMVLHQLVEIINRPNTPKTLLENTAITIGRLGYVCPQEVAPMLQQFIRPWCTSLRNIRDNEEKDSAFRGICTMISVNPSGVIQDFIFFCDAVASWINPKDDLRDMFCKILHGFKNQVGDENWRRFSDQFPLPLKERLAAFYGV

[3] = target: T2, full-length Transportin-1 (Trn1), wild …; experiment: ITC

B1: PPARγ (DBD), residues 135-209, purified (domain or fragment, human, UniProt P37231-1 135-209, looked up)
chain: MAIECRVCGDKASGFHYGVHACEGCKGFFRRTIRLKLIYDRCDLNCRIHKKSRNKCQYCRFQKCLAVGMSHNAIR
[1]
  stoichiometry N: 1 molar ratio
[2]
  stoichiometry N: 1 molar ratio

B2: PPARγ (DHL), residues 102-505, purified (domain or fragment, human, UniProt P37231-1 102-505, looked up)
chain: YQSAIKVEPASPPYYSEKTQLYNKPHEEPSNSLMAIECRVCGDKASGFHYGVHACEGCKGFFRRTIRLKLIYDRCDLNCRIHKKSRNKCQYCRFQKCLAVGMSHNAIRFGRMPQAEKEKLLAEISSDIDQLNPESADLRALAKHLYDSYIKSFPLTKAKARAILTGKTTDKSPFVIYDMNSLMMGEDKIKFKHITPLQEQSKEVAIRIFQGCQFRSVEAVQEITEYAKSIPGFVNLDLNDQVTLLKYGVHEIIYTMLASLMNKDGVLISEGQGFMTREFLKSLRKPFGDFMEPKFEFAVKFNALELDDSDLAIFIAVIILSGDRPGLLNVKPIEDIQDNLLQALELQLKLNHPESSQLFAKLLQKMTDLRQIVTEHVQLLQVIKKTETDMSLHPLLQEIYKDLY
[3]
  Kd: 200 nM
[1]
  stoichiometry N: 1 molar ratio
[2]
  stoichiometry N: 1 molar ratio

Reference: paper doi:10.1101/2024.09.17.612794 (bioRxiv, 2024)
